Assay results taken from the supplement of paper PMC9112550, “Optimization of the antimicrobial peptide Bac7 by deep mutational scanning” (BMC Biology, 2022).

What follows are sequences tested on Escherichia coli TOP10 (assay: shrunken log2 fold change of peptide-encoding DNA abundance (4.5 h post-induction vs induction); higher = less antimicrobial activity (less host growth inhibition)). Conditions: time post-induction: 4.5 h; library: site-saturation at positions 5, 18, 19, 20.
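Further: peptides expressed intracellularly from a pBAD plasmid library in pooled LB shake-flask culture, induced with 0.3% L-arabinose, DNA abundance read by NGS, three biological replicates, DESeq2 with apeglm shrinkage.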

Sequence	shrunken log2 fold change
RRIRARPPRLPRPRPRPKFGPRP	0.581
RRIRARPPRLPRPRPRPKFMPRP	0.0584
RRIRARPPRLPRPRPRPKHWPRP	0.593
RRIRARPPRLPRPRPRPKIKPRP	0.0665
RRIRARPPRLPRPRPRPKKKPRP	0.119
RRIRARPPRLPRPRPRPKKYPRP	-0.232
RRIRARPPRLPRPRPRPKLMPRP	0.357
RRIRARPPRLPRPRPRPKLVPRP	0.106
RRIRARPPRLPRPRPRPKMVPRP	0.116
RRIRARPPRLPRPRPRPKNFPRP	0.251
RRIRARPPRLPRPRPRPKPPPRP	0.959
RRIRARPPRLPRPRPRPKQRPRP	0.558
RRIRARPPRLPRPRPRPKRVPRP	0.455
RRIRARPPRLPRPRPRPKSAPRP	0.709
RRIRARPPRLPRPRPRPKSYPRP	-0.145
RRIRARPPRLPRPRPRPKTFPRP	-0.0543
RRIRARPPRLPRPRPRPKVRPRP	0.047
RRIRARPPRLPRPRPRPKVSPRP	0.669
RRIRARPPRLPRPRPRPKWEPRP	0.0262
RRIRARPPRLPRPRPRPKYDPRP	-0.293
RRIRARPPRLPRPRPRPLAFPRP	0.703
RRIRARPPRLPRPRPRPLAQPRP	0.578
RRIRARPPRLPRPRPRPLDDPRP	0.875
RRIRARPPRLPRPRPRPLDTPRP	0.39
RRIRARPPRLPRPRPRPLEMPRP	0.75

Sequence	shrunken log2 fold change
RRIRARPPRLPRPRPRPLFRPRP	0.881
RRIRARPPRLPRPRPRPLHDPRP	0.341
RRIRARPPRLPRPRPRPLIQPRP	0.0545
RRIRARPPRLPRPRPRPLKLPRP	-0.152
RRIRARPPRLPRPRPRPLKMPRP	0.283
RRIRARPPRLPRPRPRPLLCPRP	0.612
RRIRARPPRLPRPRPRPLLHPRP	0.264
RRIRARPPRLPRPRPRPLLQPRP	0.171
RRIRARPPRLPRPRPRPLPFPRP	-0.249
RRIRARPPRLPRPRPRPLQHPRP	1.22
RRIRARPPRLPRPRPRPLQWPRP	0.539
RRIRARPPRLPRPRPRPLRAPRP	1.19
RRIRARPPRLPRPRPRPLSHPRP	0.186
RRIRARPPRLPRPRPRPLSIPRP	-0.308
RRIRARPPRLPRPRPRPLTIPRP	0.0223
RRIRARPPRLPRPRPRPLTVPRP	0.242
RRIRARPPRLPRPRPRPLVAPRP	0.58
RRIRARPPRLPRPRPRPLVHPRP	-0.139
RRIRARPPRLPRPRPRPLYEPRP	0.000796
RRIRARPPRLPRPRPRPLYTPRP	-0.0964
RRIRARPPRLPRPRPRPLYWPRP	-0.194
RRIRARPPRLPRPRPRPMCKPRP	0.0809
RRIRARPPRLPRPRPRPMDEPRP	1.02
RRIRARPPRLPRPRPRPMDWPRP	0.341
RRIRARPPRLPRPRPRPMEPPRP	0.0999

Sequence	shrunken log2 fold change
RRIRARPPRLPRPRPRPMESPRP	0.0501
RRIRARPPRLPRPRPRPMGTPRP	0.304
RRIRARPPRLPRPRPRPMGWPRP	0.468
RRIRARPPRLPRPRPRPMIQPRP	0.0771
RRIRARPPRLPRPRPRPMISPRP	0.501
RRIRARPPRLPRPRPRPMKWPRP	0.126
RRIRARPPRLPRPRPRPMLWPRP	0.183
RRIRARPPRLPRPRPRPMMCPRP	0.544
RRIRARPPRLPRPRPRPMNLPRP	-0.313
RRIRARPPRLPRPRPRPMNTPRP	0.0292
RRIRARPPRLPRPRPRPMQDPRP	0.188
RRIRARPPRLPRPRPRPMQNPRP	0.767
RRIRARPPRLPRPRPRPMTMPRP	0.245
RRIRARPPRLPRPRPRPMVRPRP	0.348
RRIRARPPRLPRPRPRPMWCPRP	0.172
RRIRARPPRLPRPRPRPMWSPRP	0.0725
RRIRARPPRLPRPRPRPMYCPRP	0.0455
RRIRARPPRLPRPRPRPNAKPRP	0.262
RRIRARPPRLPRPRPRPNCDPRP	0.476
RRIRARPPRLPRPRPRPNCIPRP	-0.113
RRIRARPPRLPRPRPRPNCLPRP	-0.111
RRIRARPPRLPRPRPRPNCYPRP	-0.211
RRIRARPPRLPRPRPRPNDFPRP	-0.214
RRIRARPPRLPRPRPRPNEDPRP	0.334
RRIRARPPRLPRPRPRPNGGPRP	-0.01

Sequence	shrunken log2 fold change
RRIRARPPRLPRPRPRPNHHPRP	-0.223
RRIRARPPRLPRPRPRPNIAPRP	0.464
RRIRARPPRLPRPRPRPNIFPRP	0.0429
RRIRARPPRLPRPRPRPNIQPRP	-0.122
RRIRARPPRLPRPRPRPNKEPRP	-0.211
RRIRARPPRLPRPRPRPNKFPRP	-0.3
RRIRARPPRLPRPRPRPNLYPRP	-0.345
RRIRARPPRLPRPRPRPNMDPRP	-0.00909
RRIRARPPRLPRPRPRPNNDPRP	0.026
RRIRARPPRLPRPRPRPNNFPRP	-0.236
RRIRARPPRLPRPRPRPNNRPRP	-0.326
RRIRARPPRLPRPRPRPNVGPRP	0.251
RRIRARPPRLPRPRPRPNVYPRP	-0.115
RRIRARPPRLPRPRPRPNWQPRP	-0.0264
RRIRARPPRLPRPRPRPNYHPRP	-0.425
RRIRARPPRLPRPRPRPPCNPRP	0.0888
RRIRARPPRLPRPRPRPPDFPRP	0.708
RRIRARPPRLPRPRPRPPECPRP	0.327
RRIRARPPRLPRPRPRPPFCPRP	0.31
RRIRARPPRLPRPRPRPPFNPRP	0.167
RRIRARPPRLPRPRPRPPFVPRP	1.42
RRIRARPPRLPRPRPRPPFWPRP	0.914
RRIRARPPRLPRPRPRPPGQPRP	0.0736
RRIRARPPRLPRPRPRPPLEPRP	0.583
RRIRARPPRLPRPRPRPPLLPRP	0.543

Sequence	shrunken log2 fold change
RRIRARPPRLPRPRPRPPMEPRP	0.587
RRIRARPPRLPRPRPRPPMQPRP	0.781
RRIRARPPRLPRPRPRPPMRPRP	1.26
RRIRARPPRLPRPRPRPPNNPRP	0.0107
RRIRARPPRLPRPRPRPPPNPRP	1.35
RRIRARPPRLPRPRPRPPPSPRP	1.26
RRIRARPPRLPRPRPRPPRNPRP	0.965
RRIRARPPRLPRPRPRPPSQPRP	0.669
RRIRARPPRLPRPRPRPPSTPRP	0.563
RRIRARPPRLPRPRPRPPTEPRP	1.2
RRIRARPPRLPRPRPRPPTWPRP	1.67
RRIRARPPRLPRPRPRPPTYPRP	0.0408
RRIRARPPRLPRPRPRPPVHPRP	0.516
RRIRARPPRLPRPRPRPPVYPRP	0.0965
RRIRARPPRLPRPRPRPPWKPRP	0.429
RRIRARPPRLPRPRPRPQCDPRP	0.0205
RRIRARPPRLPRPRPRPQCTPRP	-0.0222
RRIRARPPRLPRPRPRPQDEPRP	0.195
RRIRARPPRLPRPRPRPQHAPRP	0.269
RRIRARPPRLPRPRPRPQHKPRP	0.292
RRIRARPPRLPRPRPRPQKFPRP	-0.509
RRIRARPPRLPRPRPRPQKRPRP	0.172
RRIRARPPRLPRPRPRPQLKPRP	0.237
RRIRARPPRLPRPRPRPQMFPRP	-0.046
RRIRARPPRLPRPRPRPQNIPRP	-0.56

Sequence	shrunken log2 fold change
RRIRARPPRLPRPRPRPQPDPRP	0.254
RRIRARPPRLPRPRPRPQPEPRP	1.04
RRIRARPPRLPRPRPRPQPVPRP	0.292
RRIRARPPRLPRPRPRPQQQPRP	0.946
RRIRARPPRLPRPRPRPQRKPRP	0.365
RRIRARPPRLPRPRPRPQRSPRP	0.17
RRIRARPPRLPRPRPRPQSFPRP	-0.121
RRIRARPPRLPRPRPRPQSGPRP	-0.0719
RRIRARPPRLPRPRPRPQVGPRP	0.391
RRIRARPPRLPRPRPRPQVWPRP	0.275
RRIRARPPRLPRPRPRPQWKPRP	0.179
RRIRARPPRLPRPRPRPQYIPRP	-0.566
RRIRARPPRLPRPRPRPQYMPRP	-0.112
RRIRARPPRLPRPRPRPRADPRP	0.924
RRIRARPPRLPRPRPRPRCGPRP	0.609
RRIRARPPRLPRPRPRPRCIPRP	0.459
RRIRARPPRLPRPRPRPRCKPRP	0.51
RRIRARPPRLPRPRPRPRDLPRP	-0.162
RRIRARPPRLPRPRPRPRETPRP	0.52
RRIRARPPRLPRPRPRPRFAPRP	0.513
RRIRARPPRLPRPRPRPRHPPRP	0.383
RRIRARPPRLPRPRPRPRIAPRP	0.631
RRIRARPPRLPRPRPRPRIIPRP	0.093
RRIRARPPRLPRPRPRPRKDPRP	0.173
RRIRARPPRLPRPRPRPRLCPRP	0.574
